{"source": "patent US20010010919A1", "about": "(published 2001)", "target": "T1, orphanin FQ receptor (rat, UniProt P35370 1-367)", "T1 chain": "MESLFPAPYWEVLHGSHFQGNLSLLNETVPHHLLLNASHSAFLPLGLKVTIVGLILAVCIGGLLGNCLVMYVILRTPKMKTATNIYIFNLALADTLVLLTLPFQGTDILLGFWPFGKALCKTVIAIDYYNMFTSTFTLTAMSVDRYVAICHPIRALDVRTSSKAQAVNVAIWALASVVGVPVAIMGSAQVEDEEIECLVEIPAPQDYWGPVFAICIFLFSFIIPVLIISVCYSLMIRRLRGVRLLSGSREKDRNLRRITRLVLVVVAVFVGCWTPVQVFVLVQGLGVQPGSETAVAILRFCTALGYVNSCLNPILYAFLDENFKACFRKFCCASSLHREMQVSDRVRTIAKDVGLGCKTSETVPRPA", "assay": "cell-based or functional assay"}
{"binder": "FGGFTGARKSARKYANQ", "note": "[Y14-orphanin FQ]", "values": [{"measurement": "EC50, cAMP inhibition assay", "value": 1, "unit": "nM"}]}
